The results in this text go back to patent CN111499746A (YUROGEN BIOSYSTEMS LLC, dated 2020).

The target in this experiment is T1, 重组人IL-2蛋白 (human, UniProt P60568 21-153).
T1 construct: also called 人白介素-2; 重组表达人IL-2
Put plainly: SPR, Biacore 3000; antibody at 333 nM, recombinant human IL-2 at 64, 32, 16, 8, 4 nM. On the technique in general: In SPR one partner is held on a chip, and binding of the other changes the refractive index at the surface.

T1 sequence (P60568 21-153 limits assumed): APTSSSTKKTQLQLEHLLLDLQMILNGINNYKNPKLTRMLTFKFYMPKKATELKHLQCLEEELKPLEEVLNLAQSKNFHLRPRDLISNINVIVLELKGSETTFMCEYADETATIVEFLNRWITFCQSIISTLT

B1: 抗人IL-2蛋白兔单克隆抗体A (antibody, V domains shown)
VH: QSVAESGGRLVTPGTPLTLTCTASGFSLTTYAMSWVRQAPGKGLEWIAIIYIDGTTYYGSWAKGRFTISKTSTTVDLRIISPTTEDTATYFCAKWYVGEMDLWGPGTLVTVSS
VL: DIVMTQTPASVEAAVGGTVTINCQASQSVYRDNYLAWYQQKPGQRPKLLIYGTSTLASGVSSRFKGSGSGTQFTLTISDLECADAATYYCQSYVYSSTIDNAFGGGTEVVVKG
notes: Recombinant rabbit monoclonal antibody made in 293 cells and purified on protein A; also called 人IL-2兔单克隆抗体A
B1: the dissociation constant (Kd) came out at 0.899 nM.

B2: 抗人IL-2蛋白兔单克隆抗体B (antibody, V domains shown)
VH: QSLEESGGRLVTPGGSLTLTCTVSGIDLSTGGVSWVRQAPGKGLEWIGIISRHTNTYYASWAKGRFTISKTSSTTVDVKITSPTIEDTATYYCARVSSGDGLYAFDPWGPGTLVTVSS
VL: AIEMTQTPSPVSAAVGGTVTINCQASEDIETYLAWYQQKPGQPPRLLIYSGSTIASGVSSHFKGSGSGTEFTLTISDLECADAATYYCQCTSYASGYWNQAFGGGTEVVVRG
notes: Recombinant rabbit monoclonal antibody made in 293 cells and purified on protein A; in the Biacore assay it is unlabelled; also called 人IL-2兔单克隆抗体B
On to B2, for which the Kd was 0.293 nM.

Broadly, the Kd is the free concentration of one partner at which half of the binding sites on the other are occupied at equilibrium, for simple one-to-one binding.
